Source: the supplement of paper PMC9112550, “Optimization of the antimicrobial peptide Bac7 by deep mutational scanning” (BMC Biology, 2022)

Each sequence was assayed on Escherichia coli TOP10 (assay: shrunken log2 fold change of peptide-encoding DNA abundance (4.5 h post-induction vs induction); higher = less antimicrobial activity (less host growth inhibition)). Details: time post-induction: 4.5 h; library: site-saturation at positions 5, 18, 19, 20.
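Further: peptides expressed intracellularly from a pBAD plasmid library in pooled LB shake-flask culture, induced with 0.3% L-arabinose, DNA abundance read by NGS, three biological replicates, DESeq2 with apeglm shrinkage.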

Sequence | shrunken log2 fold change
RRIRHRPPRLPRPRPRPGKIPRP | -0.769
RRIRQRPPRLPRPRPRPPTMPRP | 0.29
RRIRIRPPRLPRPRPRPWLYPRP | -0.0424
RRIRRRPPRLPRPRPRPKCDPRP | 0.0319
RRIRMRPPRLPRPRPRPYKNPRP | -0.259
RRIRVRPPRLPRPRPRPPFCPRP | 1.39
RRIRRRPPRLPRPRPRPDEHPRP | -0.0368
RRIRKRPPRLPRPRPRPMWLPRP | 0.642
RRIRSRPPRLPRPRPRPTCMPRP | 0.0286
RRIRARPPRLPRPRPRPHSDPRP | 0.39
RRIRIRPPRLPRPRPRPCPYPRP | -0.269
RRIRMRPPRLPRPRPRPSRHPRP | 0.228
RRIRRRPPRLPRPRPRPAYMPRP | 0.0857
RRIRIRPPRLPRPRPRPFYGPRP | 0.0259
RRIRCRPPRLPRPRPRPNHIPRP | -0.994
RRIRDRPPRLPRPRPRPSGAPRP | 0.0348
RRIRTRPPRLPRPRPRPASFPRP | 0.133
RRIRRRPPRLPRPRPRPLAIPRP | 0.0863
RRIRKRPPRLPRPRPRPWAYPRP | -0.228
RRIRKRPPRLPRPRPRPIRWPRP | 0.0019
RRIRVRPPRLPRPRPRPHAWPRP | 0.0267
RRIRRRPPRLPRPRPRPTDGPRP | 0.0329
RRIRARPPRLPRPRPRPIFQPRP | 0.116
RRIRNRPPRLPRPRPRPWRHPRP | -0.109
RRIRERPPRLPRPRPRPWFYPRP | -0.985

Sequence | shrunken log2 fold change
RRIRWRPPRLPRPRPRPRIEPRP | 0.186
RRIRSRPPRLPRPRPRPIFYPRP | -0.387
RRIRYRPPRLPRPRPRPVFHPRP | -0.492
RRIRGRPPRLPRPRPRPKKVPRP | 0.942
RRIRWRPPRLPRPRPRPGKSPRP | 0.0772
RRIRPRPPRLPRPRPRPGYPPRP | -0.0289
RRIRWRPPRLPRPRPRPHLFPRP | 0.0795
RRIRGRPPRLPRPRPRPTIWPRP | 0.872
RRIRTRPPRLPRPRPRPYFNPRP | -1.03
RRIRSRPPRLPRPRPRPMHLPRP | -0.118
RRIRFRPPRLPRPRPRPYFAPRP | -0.572
RRIRKRPPRLPRPRPRPMIQPRP | 0.195
RRIRCRPPRLPRPRPRPYNGPRP | -0.216
RRIRLRPPRLPRPRPRPDIQPRP | 0.0103
RRIRCRPPRLPRPRPRPPNSPRP | 0.0267
RRIRDRPPRLPRPRPRPFSQPRP | -0.172
RRIRDRPPRLPRPRPRPCVIPRP | 0.1
RRIRHRPPRLPRPRPRPWIFPRP | -0.332
RRIRERPPRLPRPRPRPGESPRP | -0.0304
RRIRVRPPRLPRPRPRPQKLPRP | -0.0565
RRIRHRPPRLPRPRPRPPENPRP | 0.116
RRIRGRPPRLPRPRPRPHLDPRP | 0.34
RRIRTRPPRLPRPRPRPDTYPRP | -0.202
RRIRNRPPRLPRPRPRPLTLPRP | -0.358
RRIRKRPPRLPRPRPRPSQVPRP | 0.31

Sequence | shrunken log2 fold change
RRIRYRPPRLPRPRPRPQWSPRP | -0.0453
RRIRNRPPRLPRPRPRPAFKPRP | -0.0432
RRIRGRPPRLPRPRPRPNFAPRP | 0.569
RRIRHRPPRLPRPRPRPPMCPRP | -0.00483
RRIRNRPPRLPRPRPRPMLPPRP | 0.00241
RRIRRRPPRLPRPRPRPLCLPRP | 0.0544
RRIRSRPPRLPRPRPRPEPGPRP | 0.197
RRIRRRPPRLPRPRPRPQRFPRP | 0.294
RRIRPRPPRLPRPRPRPAEPPRP | -0.0331
RRIRRRPPRLPRPRPRPQTMPRP | 0.0791
RRIRTRPPRLPRPRPRPEDGPRP | 0.0244
RRIRRRPPRLPRPRPRPYEEPRP | -0.3
RRIRGRPPRLPRPRPRPIGPPRP | 0.5
RRIRVRPPRLPRPRPRPAWQPRP | -0.00433
RRIRIRPPRLPRPRPRPPINPRP | -0.305
RRIRVRPPRLPRPRPRPMCAPRP | 0.137
RRIRRRPPRLPRPRPRPQYYPRP | -0.968
RRIRARPPRLPRPRPRPVNDPRP | 0.584
RRIRTRPPRLPRPRPRPPKCPRP | -0.339
RRIRMRPPRLPRPRPRPETMPRP | 3.17
RRIRERPPRLPRPRPRPHSWPRP | -0.183
RRIRMRPPRLPRPRPRPQDNPRP | 0.013
RRIRKRPPRLPRPRPRPAAIPRP | 0.255
RRIRCRPPRLPRPRPRPCSAPRP | -0.277
RRIRYRPPRLPRPRPRPSNDPRP | -0.29
